Assay results as given in patent publication US20260241035A1, “FUNCTIONAL NUCLEIC ACID MOLECULE AND METHOD” (THE UNIVERSITY COURT OF THE UNIVERSITY OF EDINBURGH, priority 2022, published 2026).

Experiments:
Type in all cases: cell-based, human
in vitro = conditions: human; ganciclovir alone, GSC7; read-out: viability (MTT)
Procedure: (§4) On the day of cell seeding, cells were detached using above described method. Cells were counted using hemocytometer and seeded into either 96-(1,000 cells per well in 50 μL), 24-(30,000 cells per well in 500 μL) or 6-well (60,000 cells per well in 2 mL) Corning plate and placed into incubator at 37° C./5% CO2. The next day, AAV virus stocks were thawed at room temperature and an appropriate amount of virus stock was added to required amount of culture media to achieve final multiplicity of infection (MOI) of 5×10^5. Culture media containing viral particles was added to cells without replacement of existing media. Cells were returned to 37° C./5% CO2.
(§5) Lyophilised GCV was diluted in DMSO to achieve 100 mM stock concentration. GCV stocks were aliquoted and were stored at −20° C. for no longer than 1 month. […]
(§6) To track cell proliferation and morphological changes during treatments, cells were monitored using the Incucyte live-cell imaging system. […]
(§7) On the day of assay culture media was replaced with 0.3 mg/mL MTT solution (diluted in cell line-appropriate culture media). […] Before reading the plate, each well was visually inspected to make sure that all (formazan) crystals were dissolved. Plate was read with plate reader at 560 nm absorbance.

GSC7 cells [1] = assay: in vitro; conditions: ganciclovir alone, no virus
Procedure: as §4, §5, §6, §7

GSC7 cells [2] = assay: Flow cytometry of mNGreen reporter in GSC7
Procedure: Cells were seeded at the required density. The following day the transfection was carried out. […] Following this step, the Plus reagent/Optimem premix was added to all DNA samples followed by the Lipofectamine LTX/Optimem premix. The transfection mix was incubated for 5 min at room temperature and then carefully dropped on the cells. Generally, no media change was carried out. Cells were analysed two days following transfection.
For flow cytometry, cells were detached, pelleted and resuspended in an appropriate volume of flow cytometry buffer (1% BSA in PBS, v/v). Cells were stained with Draq7 (Abcam, ab109202, f.c. 0.1 μM) as a live/dead stain and analysed using the BD LSRFortessa cell analyser (4 lasers, BD Bioscience).

GSC7 cells [3] = assay: AAV2 transduction: mCherry (flow cytometry) and HSV-TKv5 (western blot) expression in GSC7; conditions: AAV2 HSV-TK-v5-P2A-mCherry cassette
Procedure: (§1) For flow cytometry, cells were detached, pelleted and resuspended in an appropriate volume of flow cytometry buffer (1% BSA in PBS, v/v). Cells were stained with Draq7 (Abcam, ab109202, f.c. 0.1 μM) as a live/dead stain and analysed using the BD LSRFortessa cell analyser (4 lasers, BD Bioscience). Analysis of flow cytometry data was carried out in the FlowJo Analysis software (FlowJo, version 10.6.2).
(§2) Cells were scraped in PBS and spun down at […] twice to remove all liquid. Cell pellets were resuspended in 70 μl of RIPA buffer (50 mM Tris-HCl pH 8.0, 150 mM NaCl, 1% NP-40, 0.5% deoxycholate, 0.1% SDS and protease inhibitor (Complete, Roche, 11697498001) and incubated for 5 min on ice. Lysates were centrifuged at 13000 rpm for 10 min at 4° C. (centrifuge 5415D, Eppendorf). And the supernatant was collected in a new tube. Protein extracts were quantified using the Pierce BCA Protein Assay Kit (Thermo Scientific, Cat: 23225) according to the manufacturer's instructions.
(§3) HEK293 cells are seeded the day before the transfection into a 6 well plates so that on the day of transfection confluence would be at 60-70%. Before HEK293 cells are transfected with PEI a media change is carried out as this media will be conditioned with virus over the for two days. […] Cells are analysed on the microscope or flow cytometry. […]

huFb170 fibroblasts = assay: AAV2 transduction: mCherry and HSV-TKv5 expression in huFb170; conditions: AAV2 HSV-TK-v5-P2A-mCherry cassette
Procedure: as §1, §2, §3

[4] = system: patient-derived glioblastoma cell lines (GSC7, E17, E21, E28, E31, E34); assay: SSE-7 activity (% mCherry) across patient-derived glioblastoma cell lines
From the text: FIG. 7: Activity of SSE-7 in a range of GSCs. (A) Schematic of the expression cassette. (B) Experimental outline, (C) Results of % mCherry expression for individual cells across the various cell lines tested. GSC7 was the positive control cell line tested (from which the fragments were initially screened). E17, E28 (previously termed G328), E21, E31, E34 refers to the five additional patient-derived glioblastoma cell lines.
The experiment described in Example 8 was repeated in five patient-derived glioblastoma cell lines (E17, E21, E28, E31, E34).

[5] = system: GSC patient lines E31 and E55; assay: Lentivirus SSE-7-mCherry reporter, flow cytometry in GSC patient lines
From the text: FIG. 14: Exemplary SSE-7 also has good activity when deployed with lentivirus. Flow cytometry quantitation of levels of mCherry reporter in GSCs transduced with lentivirus harbouring SSE-7-mCherry reporters.

GSC328 cells = assay: Flow cytometry of mNGreen reporter in GSC328
Procedure: Cells were seeded at the required density. The following day the transfection was carried out. For this the Plus reagent and Lipofectamine LTX (Life Technologies, 15338030) were each diluted in half the volume of Opti-MEM I Reduced-Serum Medium (further referred to as Optimem) (Life Technologies, 31985062). Following this step, the Plus reagent/Optimem premix was added to all DNA samples followed by the Lipofectamine LTX/Optimem premix. The transfection mix was incubated for 5 min at room temperature and then carefully dropped on the cells. Generally, no media change was carried out. Cells were analysed two days following transfection.
as §1

Nc1nc(O)c2ncn(COC(CO)CO)c2n1 [ganciclovir]
viability at 200 μM (in vitro): 89% | cell confluence (GSC7 cells [1]): No significant negative effect on cell confluence

B1: SSE-7: synthetic super-enhancer ID4310_ID4428_ID0785_ID3836, SEQ ID NO: 70 (nucleic acid)
DNA: TTGTCCTGCCTTTGAGAACACTGGAAGGGCACTGAAGGCTGACCAGCATGCACCTCACCCCACCTCCTCTCTGTCTCATCCTCAGCCATCTAAGCGGGAGACTCATCAGGCTTAAATTCTCATTCTTATCCAAGATTCTTCTGCTTCAAATGAGTCTAAATGGAGATCCTCCCATAAAGGGAGTTCTGTTTGGGCTTCCCTTGGAAGTCCATTGAAAGCGTTTCACATTTCAATGCTTCTTTACATTCTCCTCTAGAATGAATCTGGAAGGGCCATTTCATTCCAGCCCTATCAGATTTACTACTTCCTCCTGTAAGAATGAACTGGGCCCAGCTGGGCATTTGCATCAAAGTGCCTCACCAGAGTTCCCAGCTGCTCTGGCAGAGTGCCCAGGCTTGCCCCAGAGCCCAAACAGAATGCTCTTTGAGATGCCTCTGGTTTTCATACCCTTCCAGGGGAGCAGTTTCCTGGCTGTGTCGTCAGATACTGTGGTTTACGCTGTTCCGGAGTCTGGAGGTCTGTGTGCCTTTGATCTCTTTCCCAACTAATTTGCACAGCTGCTGTGGAGGCCCTCATGAATGACCTCTTTCTTTCCTTTCT
expression level compared with positive control CMV, flow cytometry (GSC7 cells [2]): higher than CMV | fluorescence intensity compared with CMV (GSC7 cells [2]): higher intensity than CMV | mCherry and HSV-TKv5 expression (GSC7 cells [3]): driving both mCherry and HSV-TKv5 expression | mCherry and HSV-TKv5 expression (huFb170 fibroblasts): not in fibroblasts | expression ([4]; E21, E31 and E34): lower frequency of expression | expression ([4]; GSC7, E17 and E28): highly expressed and comparable to full-length CMV | activity across cell lines ([4]; all lines tested): active in all cell lines | mCherry reporter expression [5]: High levels of expression

B2: SSE-6: synthetic super-enhancer ID3548_ID3146_ID4310_ID4428, SEQ ID NO: 69 (nucleic acid)
DNA: TCCAAACACTCCCCTGCAACAGATGTACACACAGAGCCCATTGTTTTCTCTAGAAATGTAAACTGCACGTCACAGTTACTCCATACACACCACAAACAGACTCCCTTTGTTCTCAGGATATGTGTTGACACAAGAATATGTCATCCTCTCAGCTCCAGACTGAAAGAGATGGGTGTGTGGGAGTGGGGGAAGCTGAGCTCCAGGCAGACAGCACAGAGCCGCCTTGTCCAACCCAGCCAGGTGCCATGGCAACCAACAAAGGCCCCATTGTCCCGTGTCTGCTGGGCCTTCCTGAGGCTCTGGGGTCAGAGTCCCGGTTTTGTCCTGCCTTTGAGAACACTGGAAGGGCACTGAAGGCTGACCAGCATGCACCTCACCCCACCTCCTCTCTGTCTCATCCTCAGCCATCTAAGCGGGAGACTCATCAGGCTTAAATTCTCATTCTTATCCAAGATTCTTCTGCTTCAAATGAGTCTAAATGGAGATCCTCCCATAAAGGGAGTTCTGTTTGGGCTTCCCTTGGAAGTCCATTGAAAGCGTTTCACATTTCAATGCTTCTTTACATTCTCCTCTAGAATGAATCTGGAAGGGCCATTTCATTCCAGCCCTATCAGATTTACTACTTCCTCCTGT
mean fluorescence intensity (MFI) compared with CMV (GSC328 cells): clearly less intense than CMV
